The text below walks through data of patent publication US20240301054A1, “TIM-3 INHIBITORS AND USES THEREOF” (Novartis AG, priority 2019, published 2024).

The assay deals with T1, interaction between TIM-3 and Galectin-9 (Homo sapiens, UniProt Q8TDQ0).
T1 construct: purchased R&D Systems
The experiment in a line: Plate-based (MesoScale) competition assay of the TIM-3/Galectin-9 interaction. It is filed as binding. As to conditions: TIM-3 fusion protein coated at 2 μg/ml; SULFOTag Galectin-9 100 nM; FIG. 1. Here is the method:
TIM-3 fusion protein (R&D Systems) was coated on a standard MesoScale 96 well plate (Meso Scale Discovery) at 2 μg/ml in PBS (Phosphate Buffered Saline) and incubated for six hours at room temperature. The plate was washed three times with PBST (PBS buffer containing 0.05% Tween-20) and blocked with PBS containing 5% Probumin (Millipore) overnight at 4° C. After incubation, the plate was washed three times with PBST and unlabeled antibody (F38-2E2 (BioLegend); MBG453; MBG453 F(ab′)2; MBG453 F(ab); or control recombinant human Galectin-9 protein) diluted in Assay Diluent (2% Probumin, 0.1% Tween-20, 0.1% Triton X-100 (Sigma) with 10% StabilGuard (SurModics)), was added in serial dilutions to the plate and incubated for one hour on an orbital shaker at room temperature. The plate was then washed three times with PBST, and Galectin-9 labeled with MSD SULFOTag (Meso Scale Discovery) as per manufacturer's instructions, diluted in Assay Diluent to 100 nM, was added to the plate for one hour at room temperature on an orbital shaker. The plate was again washed three times with PBST, and Read Buffer T (1×) was added to the plate. The plate was read on MA600 Imager, and competition was assessed as a measure of the ability of the antibody to block Ga19-SULFOTag signal to TIM-3 receptor.

B1: control Galectin-9 protein: control recombinant human Galectin-9 protein, unlabeled (protein)
chain: AFSGSQAPYLSPAVPFSGTIQGGLQDGLQITVNGTVLSSSGTRFAVNFQTGFSGNDIAFHFNPRFEDGGYVVCNTRQNGSWGPEERKTHMPFQKGMPFDLCFLVQSSDFKVMVNGILFVQYFHRVPFHRVDTISVNGSVQLSYISFQPPGVWPANPAPITQTVIHTVQSAPGQMFSTPAIPPMMYPHPAYPMPFITTILGGLYPSKSILLSGTVLPSAQRFHINLCSGNHIAFHLNPRFDENAVVRNTQIDNSWGSEERSLPRKMPFVRGQSFSVWILCEAHCLKVAVDGQHLFEYYHRLRNLPTINRLEVGGDIQLTHVQT
B1: the “ability of the antibody to block Ga19-SULFOTag signal to TIM-3 receptor (interaction between TIM-3 and Galectin-9)” value is “did not”.
